Protein production data for 21 sequences are collected here from a protein production outcome set (Wang et al. 2014).

This data set can be described thus: label from the status in PepcDB records.

With “MKFSKLADQVWGEEPDDQVRSFVFMSNLDAQETANTMDVSVSVERIHADLCGNTELASELHYTPDEWDEAQGWVKINYPLIDDTASASLDVVLDATFQPLPGQPFEGEALTLIDALLHHAENVAASNPWKRTTFHTAHMHPPGSNADCDYCLVLQRRGYVKAHEEIQQTIPLPSGDWSAGEFTVVDVEGTAFPSALIPSIVELQHRAALDVPHGNLSVAPAQWDEHRLAQQSERILKTGTKLFTVLFAEGSTVAAMSSIAIPPGSNPDIAEQGLTIVHPDFRGRGLGTAVKLAGLSLLSRCHPEIQRVATSNAVDNHAMLAINRSIGATEIARTTLWEKKL”, the protein production result was “failed”.
In the case of “MKFVHSETHRRHDPQFFIVRGQITRSTEQPERADRLLAAAQRRGHERVEARDFGEAILAEVHCPRYLDFLKNGYAQWRALPGASQEITPHVHPPREESGYPVSIIGRAGFHIADTSSPMGPHTWEAALAASHSACTAAQLVIEGAPAAYSLSRPPGHHATRDRAGGFCFLNHTAVAAQWLRHHVARVAILDVDVHHGNGTQDIFYERDDVLHVSLHADPAYFYPFFTGYAQETGRGIGAGCNLNLPLPIGTDDEAFLAALRIACRRVLDFKPDVVVVALGLDTYEGDPLNAFRITTPGFARIGQAIAGLALPTVLVQEGGYLSDELGENLATFLDGFCQHHRPTATLR”, the protein production entry was “failed”.
As to “MKFVKIALIVAVVAIALFAAKQTGILEIITDIKSLQDWIASFGVWGYAVFVAAFVFACVFLLPGSAFTIVAGIVFGPIKGGILALFSATLGAVAAFIVARFLLRNTIMKKFGDNPIFKKIDDGVAANGTSFLILTRLVPVFPFSLQNYAYGLTSLNLGTYALVSLLTMAPGAFIFAYMAGDIATNGVSVMLLVKFAVAGLVLFGMSLIPKYIAKKKGINMEELAK”, the protein production entry was “failed”.
In the case of “MKFYKKLIECIILLLFFVVFTLFIKYYFKPFLSIVILTILCSPIYNLLSKHKVFGDRINAVLSIIVINVMIFLAIFLIGNFIAQKLNIYLQHYHNVLDINKLPIIGESNVNILLNKINVFVDKLFNADFFKKSAVYTTDGILTYFVSIMSVYFILVDKYDIVNLAEKLFTKNKVHILMKKFSDIKSLLRVETFLVLITTIQTIIGFFVLGIEDCFMLGIICGILDILPYVGTIIIFIPLIIYKMYEKNYVTIFGLIALYIFLQVSRQIMETNFMSSKLKIHPLIILISVYIGIKAFGIIGLFIAPIYVITAKEIILSS”, the protein production entry was “failed”.
For the sequence “MKGFAMLGINKLGWIEKERPVAGSYDAIVRPLAVSPCTSDIHTVFEGALGDRKNMILGHEAVGEVVEVGSEVKDFKPGDRVIVPCTTPDWRSLEVQAGFQQHSNGMLAGWKFSNFKDGVFGEYFHVNDADMNLAILPKDMPLENAVMITDMMTSGFHGAELADIQMGSSVVVIGIGAVGLMGIAGAKLRGAGRIIGVGSRPICVEAAKFYGATDILNYKNGHIVDQVMKLTNGEGVDRVIMAGGGSETLSQAVSMVKPGGIISNINYHGSGDALLIPRVEWGCGMAHKTIKGGLCPGGRLMKGFAMLGINKLGWIEKERPVAGSYDAIVRPLAVSPCTSDIHTVFEGALGDRKNMILGHEAVGEVVEVGSEVKDFKPGDRVIVPCTTPDWRSLEVQAGFQQHSNGMLAGWKFSNFKDGVFGEYFHVNDADMNLAILPKDMPLENAVMITDMMTSGFHGAELADIQMGSSVVVIGIGAVGLMGIAGAKLRGAGRIIGVGSRPICVEAAKFYGATDILNYKNGHIVDQVMKLTNGEGVDRVIMAGGGSETLSQAVSMVKPGGIISNINYHGSGDALLIPRVEWGCGMAHKTIKGGLCPGGRLRAEMLRDMVVYNRVDLSKLVTHVYHGFDHIEEALLLMKDKPKDLIKAVVIL”, the protein production entry is recorded as “not failed”.
In the case of “MKGIKSACALIVLTFFSALTQAATAVEMAKQAYFLIERDPLDLDQRNEASYLIQRANVLDGDEPWVAVAQSRLTLVSGYKVGQRHDRRAYEESAVSTARQQAERAVRNGPNLAMAHVQLAMVLIIQGELRTAWDHLNTADSLDEQSFYPWYLRTVIAIHHKDEKFAAEGFKEIESRASQKYQKRLLLHERMRLAKATKNLEERDRLHRKMIELDPDYAYAWGNYGSFLLGQKRYREAVHNLERAVELKPYGLAVSQLAEARRKLNQAF”, the protein production entry is given as “failed”.
Turning to “MKGKLGLFAAMLVLAGCATASEQLRVYTEQYPPYNMTTNGQPFAHSESEITGLCTDVLKAVLENAKVDYSIKLRDLSYGMNRAQRHEDHGIYCVSKTDEREPFFEWVGPLSSIKWTLFAKPGSSIKLDDLEDARDYRIGGYKGDVMTGYLEDKGFDVSAITNNGLNAKRLEQDQIDLWVADGLAGPYLAADASDVTGLEAVLVFRETPMYLAINKDSDPDLIKALNTAYQAMQESGEIDTISRSYGL”, the protein production result is reported as “failed”.
As for “MKGKLQHIHPLGMSIILGTLFARFATSMSIPFLAIYLTTVKGVSAGMTGAIIGTSALVGVFASFIGGNLSDRFGRKTIMLWSMIVWIFVFIGFSLADHVLSFFLLNALNGLCRSFFEPTSRALLSDLTKPEYRLLVYNLRYGAINVGVAIGPIVGLQIGSAKSTIPFLVAAGVYILYTAILAFQFKKYPMEKKKVSTEKPVTMLNAMRILRKDIVFLVALVGIILSNCGFSHLTTTVSQYFANAHIFEDGVKLFSYMLALNAIVVVIIQYPVIQMCKKYTPLTSIMVGTLFVSGGLFGFGIVESMLGAAVCTIIFTIGEVLMFSMTDVFIDDIAVAHLKGTYFGAMGFSGIGAVIGPWFGGVLLDYYGYQNGFAVFSALAIFSTVAFPVLLVTKGLSKKRYDRNSNIEMHAK”, the protein production result is “failed”.
Take “MKGSLIIVGFFVLGALCGVYHLIPYDFTQSKLSFYALCALMFSVGVSVGNDPQTLRNFRSLNPRLIFLPVMTILGTLAGCAVVSLFLS”: the protein production entry is on record as “failed”.
The result for “MKGSRKGESRAKESKPREPGTRRCAKCGRLDFILKKKMGIKSGFTFWNLVFLLTLSCVKGFIYTCGGTLKGLNGTIESPGFPYGYPNGANCTWVIIAEERNRIQIVFQSFALEEEYDYLSLYDGHPHPTNFRTRLTGFHLPPPVTSTKSVFSLRLTSDFAVSAHGFKVYYEELQSSSCGNPGVPPKGVLYGTRFDVGDKIRYSCVTGYILDGHPQLTCIANSVNTASWDFPVPICRAEDACGGTMRGSSGIISSPGFPNEYHNNADCTWTIVAEPGDTISLIFTDFQMEEKYDYLEIEGSEPPTIWLSGMNIPPPIISNKNWLRLHFVTDSNHRYRGFSAPYQVKKAIDFKSRGFKLFPGKDNSNKFSLLNEGGIKTASNLCPDPGEPENGKRFGSDFR” reads “failed”; that for “MKGTVGELGEFGLIRELTSRLTTTPAVRVGPGDDAAVVAAPDRRVVASTDILVEGRHFRRDWSTAYDVGRKAAAQNLADIAAMGAVPTALLLGLVVPAELPVTWPTELMDGLRDECQVAGASVVGGDVVRGDTITVSITALGDLRNQEPVTRAGAQPGDLVAVTGWLGWSAAGFAVLSRGFRSPRAFVEAHRRPEPPYHAGPAAAGLGATAMCDVSDGLIADLGHIAEASKVRIDVRSGQIDIPSQMNDIGQAVGVDPMQWVLTGGEDHAIVATFPPDVKLPARWKVIGEVLNPSALPQVTVDGAPWTSKGGWDHFGGDVES”, “failed”.
Take “MKHIHIIGIGGTFMGGIAAIAKEAGFKVSGCDAKMYPPMSTQLEALGIGVHEGFDAAQLEEFQADIYVIGNVARRGMDVVEAILNRGLPYISGPQWLAENVLHHHWVLGVAGTHGKTTTASMLAWVLEYAGLAPGFLIGGVPENFGVSARLPQTPRQDPNSKSPFFVIEADEYDTAFFDKRSKFVHYRPRTAVLNNLEFDHADIFADLGAIQTQFHHLVRTVPSEGLIVCNGQQQSLQDTLDKGCWTPVEKFGTGHGWQIGEVNADGSFDVLLDGKKAGHVAWDLMGGHNRMNALAVIAAARHAGVDVQTACEALGAFKNVKRRMEIKGTANGITVYDDFAHHPTAIETTIQGLRQRVGGARILAVLEPRSNTMKLGTMKSALPASLKEADQVFCYAGGADWDVAEALAPLGCRLRVGKDFDTFVAEIVKNARTGDHILVMSNGGFGGIHTKLLDALR”: the protein production result is “not failed”.
Consider “MKHLPKHLRPRWRYLAVGIETWPNASFGRRAFQREVWYAAQNLLGDTGSAETDMTVLQFHDYDGTAEAIVRTRRGQTNPARAALTCLDSVDDDDVRVRVRGISGTVRACEEKYIRGPPEFTEQRHVVFENADRSATVRPPRYDVETASDGAFVGATALDFR”, for which the protein production entry was “failed”.
Regarding “MKHYTVAINGLPQEFEGFTILHLTDLHAKKYGDQQDKLIRLINRQNFDMVAMTGDFIDKDNPDLEPTLELIQGLAAKPIFFVPGNHEWRYDFSIKSSLEEHGVKILDNKNAELARGDARLWIAGVDDPYLHRDKLEEALHGIADAQPKLLLAHAPNIFKPAAESGVELVLVGHTHGGQVRLPLIGAIVAPGQGLFPQYDYGHFTAGSTNMIVNGGLGESTLPLRFCSRPEIVLVKLVSAPLEHHHHHH”, the protein production result is “failed”.
As to “MKIAYLGPSGSFTHNVALHAFPAADLLPFENITEVIKAYESKQVCFAIVPVENSIEGSVHETFDYLFHQAKIEAVAEIILPIKQQLMSTSADKTIETIFSHPQAIAQGKQYIRSHYPDVKIEMTASTAYAARFVAEHPEENYAAIAPYAAADEYHLSIIAKDIQEIDENYTRFWVLGDETP”, the protein production entry was “failed”.
Regarding “MKICAVVVTYNRKDLLVECLEALRRQTGPLDAIYIIDNASTDGTPHLLMEGGYIDDPDGSVKNLPDHHGRSLKIVYVRLNENTGGAGGFYKGVRRAFHDEYDWIWLMDDDVEPEEYTLEKLLKASERIPEDVSAVAPVRFFQGSLFISETKTFNFRNPLKHFTYDFITDDDLKEEYFKISAISFEGLLIKREAIERIGFPDKSLFIIADDTDYAIRLRDYGPIYMVSGARLIKKVAAEPDFNWKGFYHLRNVIYLDRKYGENILVRYLRPLRTLIIVTYQCLKYKPSGFKYLLKAFWEGYTLKRGKTVKPGEFLEHHHHHH”, the protein production result was “not failed”.
The result for “MKIEAASEQHLSVYRRYFRACRDEDFEYYRGLPDDADGWLLKVVQHADGEALPEGWVPCQTWFLLSDDGEIAGAARLREGETAVIQDVIGHIGFEVLPQWRGHGYGRVLLQYVQAMAPAPACGNWVLVCDADSPASVRTIEACGGQRLEDMPQPDGRV” reads “failed”; that for “MKIEERKQYVKIEVQEGDTLWELADRIKGGKTADKHKFIEWVADKNNLPTSVIKPGDVLILPVAKQHSDQYQLAVVELEHHHHHH”, “not failed”.
“MKIEEVRFGLVKIDGKEFDHDIVIYPSGRIERRMKEISKKKHGTSHKLDPEELEKYLVEDFDVLLVGTGIYGMLSLLPESKKLVEDKEVIEKPTKEALKLLEELWGKKRILAIIHVTC”: the protein production entry was “not failed”.
For “MKIELLLLFLVFAWDGYFFLRYIIGLTRKYRTIQWNPTVSVIIPAYNEEENIESAIKAALSQDYPVSEVIVVDDGSEDKTYERALRMAQEDTRVKVIRIPHGGKARALNEGIKVARGEIIVTTDADSYMAKDAVRRLVERFYSPDIVGVGGQIRVVVESFLTLVQDIEHLRIAMYRRAKELEDLSLAPGPLSAFRREALDQIGGIAESIVEDYATTKLLKKVGKVVYAPKAKLFTRMPITLKELWRQRKRWFIGDLNHLEPKDYAILMLSDFIAFLDVILPLLFIVRGEFLLLGAFFGFEILTMLPPIIFEGGSIIEALSFPFILIFLAMFYLGIHIYGYLTKLNAKIFK”, the protein production entry is on record as “failed”.
“MKIESAQIIELPKILDKRGNLSIIEEFKNIPFKIERTYWIYDVPGGESRGGHAYRENEEFIVALSGSFDVVLDDGNNKKIFSLNRSYYGLYVPKGLWREMNNFSTNSLALILSSTVYEEKDYIRDYNEFLKMKRKLEHHHHHH”: the protein production entry is “failed”.
